Reference: patent publication US20190046659A1

Molecular target: human GPC3 on GPC3-positive cells (HepG2, Huh-7, SK-Hep-1 GPC3) (human) (UniProt P51654)
Assay: cell-based or functional assay

Row | Substance | killing rate of CAR T cells on Huh-7 cells, effector target ratio 1:1 | killing rate of CAR T cells on Huh-7 cells, effector target ratio 1:3
1 | chimeric antigen receptor GC33-28Z (GC33 scFv-CD28a-CD28b-CD3 zeta) on T cells | 22% | 6%
2 | chimeric antigen receptor GC33-28BBZ (GC33 scFv-CD28a-CD28b-CD137-CD3 zeta) on T cells |  | 23%
